The record followed here is patent US12296016B2, “Ceramide-like lipid-based delivery vehicles and uses thereof” (Children's Medical Center Corporation, priority 2018, dated 2025).

The subject of series [1] is human microvascular endothelial cells (HMECs). Kind of series: Confocal fluorescence microscopy of lysosomal transport of GM1-peptides in HMECs. Type of series: cell-based. The conditions noted are these: 2 μM, 1 hour continuous uptake, Lysotracker-Red. How it is done: FIGS. 25A-25C. Confocal fluorescence microscopy images of lysosomal transport of GM1-peptides. (FIG. 25A) A schematic of endosomal sorting in human microvascular endothelial cells (HMECs). (FIG. 25B) Images HMECs incubated either with C16:0-GM1-peptide (top panels), or peptide alone (bottom panel). Cells were treated with 2 μM fluorescently green labeled compound for 1 hour for continuous uptake on coverslips, and imaged in the presence of Lysotracker-Red (red). […] Scale bars=10 μm.

For series [2] the following is noted: mice, gastric gavage. On the procedure: FIGS. 4A-4D. In vivo mouse studies. Absorption from intestine into blood for GM-fusion molecules 15 and 30 minutes after gastric gavage (FIG. 4A), and absorption from intestine into liver for GM-fusion molecules 1 hour after gastric gavage (FIG. 4B) are shown. […] Time course for absorption into blood was plotted (FIG. 4C). N=3 independent studies.

The next series has as its system MDCK cells. Kind of series: Transcytosis in MDCK cells (transwell assay, streptavidin pull-down, fluorescence). On the procedure:
The in vitro transport (transcytosis) of the peptide-GM1 conjugates across a monolayer of MDCK cells, and in vivo transport across an intestinal or nasal barrier into the blood are assessed. The peptide alone are used as negative controls, and the GM1 analogs as positive controls. C6, and C12 fatty acid analogs of ceramide were also included in the experiments as direct comparisons to the GM1 and GM3 species.
MDCK cells were seeded in 0.33 cm^2 inserts 3 days prior in media containing HBSS and […] defatted BSA. Electrical resistance was checked on day of experiment.
• 1) peptide Control • 2) GM1-C6:0-peptide • 3) Peptide-C12 fatty acid • 4) Ceramide-C2-
• 1) Check electrical resistance by EVOM. • 2) Prepare stock solutions above. • 3) Wash cells apical and basolateral with HBSS, without FBS. […]
• 1) Washed Stretavidin Magnetic beads with TBS-T 4×, to remove azide. • 2) Resuspend heads in 800 uL TBS then aliquoted 50 uL out to each tube • 3) Add 1000 μL to streptavidin heads overnight at 4° C. with rotation O/N covered in foil. • 4) Remove media and wash 3×TBS-T. • 5) Elute by addition of 220 ul 95% Formamide. 10 mM EDTA 0.4 mg/ml biotin—2 min@65° C. • 6) Pipetted 100 uL of each sample×2 on 96 well plate • 7) Fluorescence was read out on a microplate reader for Fluorescein channel, and against a standard curve. […]

The nature of series [3]: Bioavailability and pharmacokinetics of peptide fused to GM1-C4:0 in rat (gastric route or intravenous injection). The conditions noted are these: day one after intravenous injection. How it is done:
Next, the bioavailability and pharmacokinetics of a peptide fused to GM-C4:0 was tested in vivo in rat.

For series [4] the following is noted: mouse, in vivo, 2.5 nmol/kg. How it is done:
The dose was 2.5 nmol/kg for 7 week old C57B/6J with an intranasal administration volume of 10 μL and an intraperitoneal injection volume of 200 μL.

The test system of the next series is T84 intestinal cells. Kind of series: Transcytosis across T84 intestinal cells. The series is classed as in vitro ADME.
A short description of series [5]: Nasal absorption of ceramide-C6 reporter peptide conjugate in mice. The series is classed as in vivo, C57BL/6J mice. The conditions noted are these: 2 nmol/kg, blood 15 minutes post dose. On the procedure:
A reporter peptide was conjugated to a ceramide-C6 (Cer-C6) was administered to C57BL/6J mice (n=1, from Jackson Labs) at a dose of 2 nmol/kg. GM1-C6 conjugated to the same reported peptide was used as control. A total of 5 μl per nostril was administered over 5 minutes under isoflurane. Blood was collected via cardiac puncture 15 minutes post dose and the amount of the conjugate was evaluated by pulling down with magnetic streptavidin beads followed by elution and plate fluorescence measurement.

As to `N=C(N)NCCC[C@@H](NC(=O)CNC(=O)[C@@H](Cc1ccc(O)cc1)NC(=O)CNC(=O)[C@@H](CO)NC(=O)CNC(=O)[C@@H](CCCCNC(=O)CCCC[C@@H]1SC[C@@H]2NC(=O)N[C@@H]21)NC(=O)[C@H](N)Cc1cn(CCCCCCNC(=O)c2ccc(-c3c4ccc(=N)c(S(=O)(=O)O)c-4oc4c(S(=O)(=O)O)c(N)ccc34)c(C(=O)O)c2)nn1)C(=O)NCC(=O)N[C@H](CO)C(=O)NCC(=O)N[C@H](CCCCNC(=O)CON)C(N)=O` [peptide alone], in series [1], the intracellular localization result is “did not enter into cells”. Moreover, the “absorption from intestine into blood and liver” value in series [2] is “not absorbed”. For the same molecule, the “transcytosis across MDCK cell monolayer” value in the series with MDCK cells (apical to basolateral, 37° C.) is “did not cross the epithelial barrier”. Further, the “level in rat serum” value in series [3] came out at 10.8 nmol/kg. Besides, the bioavailability (usually the share of a dose that reaches the circulation, judged against a reference dose that is usually intravenous) in series [4] stood at 1.3%.
The molecule `CCCCCCCCCCCCC/C=C/[C@@H](O)[C@H](CO[C@@H]1O[C@H](CO)[C@@H](O[C@@H]2O[C@H](CO)[C@H](O[C@@H]3O[C@H](CO)[C@H](O)[C@H](O[C@@H]4O[C@H](CO)[C@H](O)[C@H](O)[C@H]4O)[C@H]3NC(C)=O)[C@H](O[C@]3(C(=O)O)C[C@H](O)[C@@H](NC(C)=O)[C@H](C=NOCC(=O)NCCCC[C@@H](NC(=O)CNC(=O)[C@@H](CO)NC(=O)CNC(=O)[C@@H](CCCNC(=N)N)NC(=O)CNC(=O)[C@@H](Cc4ccc(O)cc4)NC(=O)CNC(=O)[C@@H](CO)NC(=O)CNC(=O)[C@@H](CCCCNC(=O)CCCC[C@@H]4SC[C@@H]5NC(=O)N[C@@H]54)NC(=O)[C@H](N)Cc4cn(CCCCCCNC(=O)c5ccc(-c6c7ccc(=N)c(S(=O)(=O)O)c-7oc7c(S(=O)(=O)O)c(N)ccc67)c(C(=O)O)c5)nn4)C(N)=O)O3)[C@H]2O)[C@H](O)[C@H]1O)NC(=O)CCCCC` [peptide fused to GM1-C6:0] displayed a bioavailability in series [4] of 24.4%.
On to AF488-LC9-oxime-C6-ceramide [Cer-C6], for which the “transcytosis across T84 intestinal cells” value with T84 intestinal cells is on record as “greater than for peptides fused to GM1 or GM3 species”. Besides, in the series with MDCK cells (MDCK), the “transport with 4° C. temperature block” value is “reduced the uptake”. Besides, the “absorption via the nose” value is “absorbed more efficiently than peptide conjugated to GM1-C6” in series [5], “absorbed via the nose” in series [5] (listed as ceramide C6) and “can be absorbed via nose in mice” in series [5] (listed as ceramide-C6-reporter peptide conjugate).
Turning to “glucagon-like peptide-1 (GLP-1) [GLP-1 peptide alone]”, under “mice, gastric gavage”, the “effect on glucose metabolism in glucose tolerance test” value is “no detectable effect on glucose metabolism”. Moreover, under “mouse, in vivo”, the “absorption after gastric gavage” value is reported as “not absorbed”.
